Experimental data from article PMC7948739 (The Journal of Biological Chemistry, 2020).

Assays:
[1] = molecular target: the molecule itself; test: SEC-MALS; DEC-205 ECD, 50 ul at 1 mg ml^-1, Superdex 200 5/150, TBS (10 mM Tris-HCl pH 8.0, 150 mM NaCl)
[2] = molecular target: the molecule itself; test: AUC; sedimentation velocity, DEC-205 ECD 0.2 mg ml^-1, TBS pH 8.0, 150 mM NaCl, 20 °C, 37,000 RPM
[3] = molecular target: the molecule itself; test: AUC; sedimentation velocity, DEC-205 ECD 0.2 mg ml^-1, BIS-TRIS buffer pH 6.0, 150 mM NaCl, 20 °C, 37,000 RPM

B1: soluble DEC-205 ectodomain (ECD), residues 1-1664 (domain or fragment, human, UniProt O60449-1 28-1664, looked up)
chain: SGRAANDPFTIVHGNTGKCIKPVYGWIVADDCDETEDKLWKWVSQHRLFHLHSQKCLGLDITKSVNELRMFSCDSSAMLWWKCEHHSLYGAARYRLALKDGHGTAISNASDVWKKGGSEESLCDQPYHEIYTRDGNSYGRPCEFPFLIDGTWHHDCILDEDHSGPWCATTLNYEYDRKWGICLKPENGCEDNWEKNEQFGSCYQFNTQTALSWKEAYVSCQNQGADLLSINSAAELTYLKEKEGIAKIFWIGLNQLYSARGWEWSDHKPLNFLNWDPDRPSAPTIGGSSCARMDAESGLWQSFSCEAQLPYVCRKPLNNTVELTDVWTYSDTRCDAGWLPNNGFCYLLVNESNSWDKAHAKCKAFSSDLISIHSLADVEVVVTKLHNEDIKEEVWIGLKNINIPTLFQWSDGTEVTLTYWDENEPNVPYNKTPNCVSYLGELGQWKVQSCEEKLKYVCKRKGEKLNDASSDKMCPPDEGWKRHGETCYKIYEDEVPFGTNCNLTITSRFEQEYLNDLMKKYDKSLRKYFWTGLRDVDSCGEYNWATVGGRRRAVTFSNWNFLEPASPGGCVAMSTGKSVGKWEVKDCRSFKALSICKKMSGPLGPEEASPKPDDPCPEGWQSFPASLSCYKVFHAERIVRKRNWEEAERFCQALGAHLSSFSHVDEIKEFLHFLTDQFSGQHWLWIGLNKRSPDLQGSWQWSDRTPVSTIIMPNEFQQDYDIRDCAAVKVFHRPWRRGWHFYDDREFIYLRPFACDTKLEWVCQIPKGRTPKTPDWYNPDRAGIHGPPLIIEGSEYWFVADLHLNYEEAVLYCASNHSFLATITSFVGLKAIKNKIANISGDGQKWWIRISEWPIDDHFTYSRYPWHRFPVTFGEECLYMSAKTWLIDLGKPTDCSTKLPFICEKYNVSSLEKYSPDSAAKVQCSEQWIPFQNKCFLKIKPVSLTFSQASDTCHSYGGTLPSVLSQIEQDFITSLLPDMEATLWIGLRWTAYEKINKWTDNRELTYSNFHPLLVSGRLRIPENFFEEESRYHCALILNLQKSPFTGTWNFTSCSERHFVSLCQKYSEVKSRQTLQNASETVKYLNNLYKIIPKTLTWHSAKRECLKSNMQLVSITDPYQQAFLSVQALLHNSSLWIGLFSQDDELNFGWSDGKRLHFSRWAETNGQLEDCVVLDTDGFWKTVDCNDNQPGAICYYSGNETEKEVKPVDSVKCPSPVLNTPWIPFQNCCYNFIITKNRHMATTQDEVHTKCQKLNPKSHILSIRDEKENNFVLEQLLYFNYMASWVMLGITYRNKSLMWFDKTPLSYTHWRAGRPTIKNEKFLAGLSTDGFWDIQTFKVIEEAVYFHQHSILACKIEMVDYKEEYNTTLPQFMPYEDGIYSVIQKKVTWYEALNMCSQSGGHLASVHNQNGQLFLEDIVKRDGFPLWVGLSSHDGSESSFEWSDGSTFDYIPWKGQTSPGNCVLLDPKGTWKHEKCNSVKDGAICYKPTKSKKLSRLTYSSRCPAAKENGSRWIQYKGHCYKSDQALHSFSEAKKLCSKHDHSATIVSIKDEDENKFVSRLMRENNNITMRVWLGLSQHSVDQSWSWLDGSEVTFVKWENKSKSGVGRCSMLIASNETWKKVECEHGFGRVVCKVPLG
notes: signal peptide in the construct; Monomer at pH 6.0, tetramer at pH 8.0; In both reconstructions only R30 to E1383 (CysR to CTLD8) could be built; CTLD9 and CTLD10 are invisible; also called CD205; source: HEK293S, transient transfection, secreted, purified (FLAG resin, size exclusion)
- stoichiometry N [1]: 4
- stoichiometry N [2]: 6
- stoichiometry N [3]: 2
